Measured values from article PMC6166933 (PLoS ONE, 2018).
“And” between values parts separate entries of the source, which are not always exact repeats. Equal values may be shown once.

Target: T1, Recombinant human RO60 (human, UniProt P10155 1-538)
T1 construct: Recombinant human RO60 (rRO60), Abcam ab73786; see the vendor's data sheet for ab73786; also called rRO60; source: bought: Abcam (ab73786)
Assay: BLI; BLItz system; antibody against RO60 captured on a Protein-A biosensor, rRO60 bound to it, rDDX6 bound for 2 min and dissociation for 2 min; 25°C; 10 mM Tris-HCl (pH 8.0), 150 mM NaCl; 193 nM rDDX6 with 917 nM or 1833 nM rRO60
Details: both partners purified

T1 sequence (P10155 whole entry): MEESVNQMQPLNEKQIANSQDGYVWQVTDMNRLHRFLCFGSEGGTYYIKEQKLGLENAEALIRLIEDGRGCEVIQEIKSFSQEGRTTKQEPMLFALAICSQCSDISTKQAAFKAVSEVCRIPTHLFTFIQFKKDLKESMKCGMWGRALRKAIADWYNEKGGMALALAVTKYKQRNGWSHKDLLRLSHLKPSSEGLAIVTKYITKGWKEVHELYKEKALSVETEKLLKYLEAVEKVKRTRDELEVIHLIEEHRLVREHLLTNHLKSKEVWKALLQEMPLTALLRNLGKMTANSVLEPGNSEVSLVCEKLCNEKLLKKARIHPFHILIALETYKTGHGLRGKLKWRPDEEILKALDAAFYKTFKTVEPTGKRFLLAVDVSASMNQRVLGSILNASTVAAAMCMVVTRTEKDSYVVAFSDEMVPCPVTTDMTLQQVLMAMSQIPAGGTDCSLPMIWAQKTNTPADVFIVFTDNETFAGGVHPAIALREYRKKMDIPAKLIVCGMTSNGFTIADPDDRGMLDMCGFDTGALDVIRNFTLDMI

Kd: 620 nM and 950 nM
B1: Recombinant GST-tagged human DDX6 (natural protein, UniProt P26196 1-483, looked up)
chain: MSTARTENPVIMGLSSQNGQLRGPVKPTGGPGGGGTQTQQQMNQLKNTNTINNGTQQQAQSMTTTIKPGDDWKKTLKLPPKDLRIKTSDVTSTKGNEFEDYCLKRELLMGIFEMGWEKPSPIQEESIPIALSGRDILARAKNGTGKSGAYLIPLLERLDLKKDNIQAMVIVPTRELALQVSQICIQVSKHMGGAKVMATTGGTNLRDDIMRLDDTVHVVIATPGRILDLIKKGVAKVDHVQMIVLDEADKLLSQDFVQIMEDIILTLPKNRQILLYSATFPLSVQKFMNSHLQKPYEINLMEELTLKGVTQYYAYVTERQKVHCLNTLFSRLQINQSIIFCNSSQRVELLAKKISQLGYSCFYIHAKMRQEHRNRVFHDFRNGLCRNLVCTDLFTRGIDIQAVNVVINFDFPKLAETYLHRIGRSGRFGHLGLAINLITYDDRFNLKSIEEQLGTEIKPIPSNIDKSLYVAEYHSEPVEDEKP
notes: Recombinant GST-tagged human DDX6 (rDDX6), Abcam ab114574; it is not clear that this means full length; The printed 79 kDa with GST would fit the whole protein; also called rDDX6; source: bought: Abcam (ab114574)
